Measurements from patent US20040009898A1 (UNIVERSITY OF IOWA RESEARCH FOUNDATION, published 2004).
No end group written: not given here.

Target: urokinase plasminogen activator receptor (uPAR) on differentiated human airway epithelia (human, UniProt Q03405 23-305, GPI-linked)
Assay: cell-based or functional assay

urokinase plasminogen activator receptor (uPAR) on differentiated human airway epithelia, sequence (Q03405 23-305): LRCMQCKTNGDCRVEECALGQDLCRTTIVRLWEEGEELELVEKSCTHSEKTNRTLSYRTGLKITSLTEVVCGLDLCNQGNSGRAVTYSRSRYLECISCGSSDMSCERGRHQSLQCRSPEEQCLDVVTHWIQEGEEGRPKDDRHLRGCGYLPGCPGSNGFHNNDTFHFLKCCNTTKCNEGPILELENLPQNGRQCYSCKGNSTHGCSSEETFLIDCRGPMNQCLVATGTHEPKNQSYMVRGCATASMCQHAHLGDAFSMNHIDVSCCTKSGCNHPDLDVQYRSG

B1: u7-peptide coupled through PEG to the capsid of adenovirus Ad2/βgal-4 (other)
peptide: CLNGGTC
modifications: not fully specified; also: coupled through bifunctional PEG to adenovirus capsid, terminal Cys with free sulfhydryl used for coupling
**Q.** How did the “gene transfer (β-galactosidase) to human airway epithelia” value turn out when B1 was run?
**A.** The value was 10 fold.
